For 3 substances, fold lower ELISA signal than DAPK2 WT and fold induction of the catalytic activity (MLC phosphorylation, in vitro kinase assay) upon addition of Ca2+/CaM against EGTA results are on record in paper PMC5931534.

Experiment [1] deals with calmodulin (CaM) (UniProt P62157). Briefly: ELISA; 96-well MaxiSorp plates coated with 1 ug CaM at 4 C overnight, blocked with 4% BSA; 80 ng DAPK2 for 15 min at 30 C; detected with anti-DAPK2 antibody, HRP secondary and ABTS.
Experiment [2] shares this target.

FLAG-DAPK2 S289D, sequence (Q9UIK4 whole entry, stated change not applied): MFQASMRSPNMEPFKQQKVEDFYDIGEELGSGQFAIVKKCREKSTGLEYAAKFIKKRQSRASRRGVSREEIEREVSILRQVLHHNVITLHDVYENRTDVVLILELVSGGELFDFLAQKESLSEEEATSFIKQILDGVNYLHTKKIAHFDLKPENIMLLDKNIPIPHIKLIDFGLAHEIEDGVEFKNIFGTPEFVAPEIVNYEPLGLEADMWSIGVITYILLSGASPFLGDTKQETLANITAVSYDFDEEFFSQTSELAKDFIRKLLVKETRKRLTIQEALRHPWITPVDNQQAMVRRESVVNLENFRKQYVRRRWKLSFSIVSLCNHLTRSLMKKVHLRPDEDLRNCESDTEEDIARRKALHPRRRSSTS
FLAG-DAPK2 S289A, sequence (Q9UIK4 whole entry, stated change not applied): as above

As to “DAPK2 S289D (ELISA CaM binding assay) (from UniProt Q9UIK4-1 1-370) (enzyme)”, the fold lower ELISA signal than DAPK2 WT in experiment [1] is 5 fold.
Regarding “FLAG-DAPK2 S289A (from UniProt Q9UIK4-1 1-370) (enzyme)”, the fold induction of the catalytic activity (MLC phosphorylation, in vitro kinase assay) upon addition of Ca2+/CaM against EGTA in experiment [2] turned out to be 5.4 fold.
On the same count and under the same terms, next, “FLAG-DAPK2 S289D (from UniProt Q9UIK4-1 1-370) (enzyme)”: 1.6 fold.
